{"source": "the supplement of paper PMC12042874", "note": "± gives the uncertainty stated by the source."}
{"assay": "amyloid nucleation score (Sup35N fusion, yeast selection) (log enrichment); library NNK1; higher = more nucleation; inactive = no reads after selection", "in_short": "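Yeast lacking psi expressed peptides of 20 random codons fused to Sup35N, received 100 μM copper sulfate for 24 hours, and were then grown for 7 days at 30°C on medium lacking adenine and uracil. Illumina sequencing of input and output plasmid inserts provided the reads. Nucleation scores are DiMSum log enrichments of output over input, centred on the mode of non-aggregating sequences. Any sequence with under 100 input reads was excluded.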"}
{"substance": "VALLKWFRIWVSFANCLWGR", "amyloid nucleation score": "0.128 ± 0.99"}
{"substance": "LYCFIMDFLLGFKHCMCKGV", "amyloid nucleation score": "1.55 ± 0.44"}
{"substance": "DSGSHRGW", "amyloid nucleation score": "0.289 ± 0.28"}
{"substance": "RNSIVGCGYDVGTHVSDLGP", "amyloid nucleation score": "-0.035 ± 0.41"}
{"substance": "VDQVQDNLKFEIGKYSYWYS", "amyloid nucleation score": "0.128 ± 0.27"}
{"substance": "LKWGMVLGAYIHEFGCNM", "amyloid nucleation score": "0.804 ± 0.61"}
{"substance": "NDRFFGSKYCGVIVLSISDL", "amyloid nucleation score": "5.95 ± 0.061"}
{"substance": "RMTWQM", "amyloid nucleation score": "-0.885 ± 2.1"}
{"substance": "YVDSSI", "amyloid nucleation score": "-0.08 ± 0.97"}
{"substance": "FWTKSGSEEIITMVSTVRWR", "amyloid nucleation score": "-0.749 ± 1.1"}
{"substance": "HMLWSFLLITWYGMICRKGG", "amyloid nucleation score": "-0.15 ± 0.39"}
{"substance": "WAVRIVHMRVFFGLPVDW", "amyloid nucleation score": "-0.697 ± 0.58"}
{"substance": "LWCCMTLTIASNDFLNIRCM", "amyloid nucleation score": "1.31 ± 0.15"}
{"substance": "GLQKSVEGNYMTFLSFSLAM", "amyloid nucleation score": "5.03 ± 0.052"}
{"substance": "MYYVIFNTNSHAN", "amyloid nucleation score": "4.55 ± 0.093"}
{"substance": "KSQDKRYLSIPGCVLSFWGE", "amyloid nucleation score": "0.069 ± 0.46"}
{"substance": "RFVLVMYMESLKMHCSLTYT", "amyloid nucleation score": "-0.381 ± 0.27"}
{"substance": "RNFFDLCGTSKRRMRIS", "amyloid nucleation score": "-0.15 ± 0.47"}
{"substance": "CYYLFLHSCSYARGIFC", "amyloid nucleation score": "-0.366 ± 0.52"}
{"substance": "RHMHSQFPAGLLIVGLRIVW", "amyloid nucleation score": "0.915 ± 0.75"}
{"substance": "STMRLPWPGFRVHSL", "amyloid nucleation score": "0.901 ± 0.65"}
{"substance": "HLVDFMDE", "amyloid nucleation score": "0.105 ± 0.3"}
{"substance": "PCGEKD", "amyloid nucleation score": "0.559 ± 0.9"}
{"substance": "RLMRHNMPTVVEHAGSSRSN", "amyloid nucleation score": "-0.132 ± 0.31"}
{"substance": "WYIMGFTNDRVLRNLMCYTC", "amyloid nucleation score": "0.21 ± 0.35"}
{"substance": "SWLWSCSCLRVAMLTT", "amyloid nucleation score": "inactive"}
{"substance": "VLLYHNEDHWFCSRYYSSVS", "amyloid nucleation score": "inactive"}
{"substance": "VGWFFMYVPSSSAVFSKFLN", "amyloid nucleation score": "inactive"}
{"substance": "YSIFREW", "amyloid nucleation score": "-0.817 ± 0.53"}
{"substance": "AGNFVVPMDAE", "amyloid nucleation score": "1.62 ± 0.41"}
{"substance": "YLSHWQFAFIHLNANILL", "amyloid nucleation score": "0.596 ± 1.2"}
{"substance": "LCLRLCPLMVWSCVLERWVS", "amyloid nucleation score": "-1.78 ± 2.7"}
{"substance": "FRTYIFP", "amyloid nucleation score": "-0.091 ± 0.51"}
{"substance": "TYNYFCGLVIVVVNGVHLRV", "amyloid nucleation score": "5.507 ± 0.047"}
{"substance": "PYRPLSGRHRVLTQYGKLVG", "amyloid nucleation score": "0.112 ± 0.81"}
{"substance": "EKWGGGVM", "amyloid nucleation score": "-0.08 ± 0.58"}
{"substance": "RIISGRLSSMFVNSIKVIMD", "amyloid nucleation score": "0.889 ± 0.21"}
{"substance": "IRYKA", "amyloid nucleation score": "4.49 ± 0.11"}
{"substance": "ENDYITCQMSQSVQNVVVVK", "amyloid nucleation score": "0.647 ± 0.43"}
{"substance": "DVVPSSGFVFMIRTDTLSHN", "amyloid nucleation score": "-0.265 ± 1.2"}
{"substance": "GNDIEAIKHSGLLLSSWTMG", "amyloid nucleation score": "-0.253 ± 1.2"}
{"substance": "TLYLPGLKPTRHECMDLHQG", "amyloid nucleation score": "inactive"}
{"substance": "GNCKGKRPSRGGRCSGQ", "amyloid nucleation score": "1.2 ± 0.58"}
{"substance": "ITREVSL", "amyloid nucleation score": "1.36 ± 0.61"}
{"substance": "SYLFRSRRIRYFRFMHN", "amyloid nucleation score": "3.17 ± 0.12"}
{"substance": "QNFSRTGGIGIHKIFVGMGE", "amyloid nucleation score": "-1.13 ± 1.4"}
{"substance": "LKNSVSFMADGS", "amyloid nucleation score": "-0.327 ± 0.38"}
{"substance": "VTRCVAVAFSLGYLVIKCAL", "amyloid nucleation score": "-0.243 ± 0.76"}
{"substance": "RFEGERRVVG", "amyloid nucleation score": "-0.035 ± 0.3"}
{"substance": "SCIWIWICNHSMFGMETGLG", "amyloid nucleation score": "4.12 ± 0.1"}
{"substance": "IRTNKVFASMPYDNSDTFCS", "amyloid nucleation score": "-1.5 ± 1.9"}
{"substance": "FNLFVTFSMLRPWSAVPMLA", "amyloid nucleation score": "0.338 ± 0.81"}
{"substance": "LCFYDKYGPQYL", "amyloid nucleation score": "-0.59 ± 0.54"}
{"substance": "SIGYMNLDRVI", "amyloid nucleation score": "-0.944 ± 0.39"}
{"substance": "FHSMDEHVLLILTKNSV", "amyloid nucleation score": "0.317 ± 0.6"}
{"substance": "TEINIASPYWNNSRSGSDMD", "amyloid nucleation score": "0.238 ± 0.42"}
{"substance": "SFVWLR", "amyloid nucleation score": "2.67 ± 0.37"}
{"substance": "KKVFFHKRVLSDARCKPVKS", "amyloid nucleation score": "-0.567 ± 0.41"}
{"substance": "LFSPMSILRFLFMYIAKVMD", "amyloid nucleation score": "0.213 ± 0.58"}
{"substance": "ESVTWSWE", "amyloid nucleation score": "0.505 ± 0.39"}
{"substance": "YCHSVVFV", "amyloid nucleation score": "0.352 ± 1"}
{"substance": "TWTLL", "amyloid nucleation score": "1.18 ± 0.63"}
{"substance": "ITETSSSETMLLVVRTWEVW", "amyloid nucleation score": "0.332 ± 0.63"}
{"substance": "LVMSTRLQTCCWLNVNVGWV", "amyloid nucleation score": "6.04 ± 0.069"}
{"substance": "NVDFLISQSRIFYIERLSSQ", "amyloid nucleation score": "2.77 ± 0.16"}
{"substance": "GVWYCYLGVN", "amyloid nucleation score": "-0.431 ± 1.4"}
{"substance": "PNMGREYKIGTGHYYEQFFH", "amyloid nucleation score": "-0.082 ± 0.17"}
{"substance": "SDAITRVIRHMNPFCLTALL", "amyloid nucleation score": "-0.928 ± 0.95"}
{"substance": "SNLQWYRTKGGVGLVTVMWR", "amyloid nucleation score": "0.981 ± 0.16"}
{"substance": "LNTWVGVGGWPE", "amyloid nucleation score": "-0.135 ± 0.78"}
{"substance": "IFYFYFCRYLSIQMVILGVQ", "amyloid nucleation score": "0.983 ± 0.33"}
{"substance": "GSNIVSEYERLGRIMSV", "amyloid nucleation score": "-0.509 ± 1.2"}
{"substance": "KNVNAVR", "amyloid nucleation score": "0.173 ± 0.79"}
{"substance": "KIKLMF", "amyloid nucleation score": "-0.416 ± 1.6"}
{"substance": "GFPLQSKDTARNIGTQFLEW", "amyloid nucleation score": "-0.003 ± 0.4"}
{"substance": "NYETPGRFDKSVSTGEAFQS", "amyloid nucleation score": "-0.868 ± 0.55"}
{"substance": "KNDGYIH", "amyloid nucleation score": "-0.561 ± 1.4"}
{"substance": "GVRGVSKMECKYQKFIGLTG", "amyloid nucleation score": "1.78 ± 0.61"}
{"substance": "QLTLSNWLKTSAKA", "amyloid nucleation score": "2.5 ± 0.32"}
{"substance": "AWKKFSWDRLSKP", "amyloid nucleation score": "5.16 ± 0.072"}
{"substance": "LLSCSYMKIVFI", "amyloid nucleation score": "1.47 ± 0.16"}
{"substance": "FFSKNT", "amyloid nucleation score": "-0.041 ± 0.26"}
{"substance": "IVNSKCRFWYYINGTVIFFL", "amyloid nucleation score": "6.331 ± 0.059"}
{"substance": "MKVYHSTQEVLWGQGGLLTR", "amyloid nucleation score": "-0.116 ± 0.42"}
{"substance": "FLVNFGWRFAD", "amyloid nucleation score": "1.14 ± 0.32"}
{"substance": "VSVFCTSFWASTKLYWTVSE", "amyloid nucleation score": "-0.351 ± 0.6"}
{"substance": "HNFLSYFQNRNDYCASN", "amyloid nucleation score": "-0.503 ± 0.6"}
{"substance": "MRFMPVVWCRRMQESLGHST", "amyloid nucleation score": "-0.026 ± 0.37"}
{"substance": "SGKSNSKPALEYYVSFFIDL", "amyloid nucleation score": "-0.52 ± 0.55"}
{"substance": "IQYELMRMACSRNFIIAEFF", "amyloid nucleation score": "0.2 ± 0.72"}
{"substance": "KEWFYYLVDELCGGLCNPVR", "amyloid nucleation score": "0.39 ± 1.2"}
{"substance": "YGNIGV", "amyloid nucleation score": "0.231 ± 0.81"}
{"substance": "YWLGLNMCVFSHPGCGLREI", "amyloid nucleation score": "6.64 ± 0.047"}
{"substance": "LGHGGVR", "amyloid nucleation score": "0.566 ± 0.28"}
{"substance": "YGRRGNFPSRWTSQHADIKF", "amyloid nucleation score": "-0.308 ± 0.57"}
{"substance": "SFSYLIFTTVLLVWW", "amyloid nucleation score": "0.549 ± 0.34"}
{"substance": "VLLACGIFKDPTSCFCMLSL", "amyloid nucleation score": "-0.432 ± 0.48"}
{"substance": "HLAINNADTALGSYKGQVSV", "amyloid nucleation score": "2.36 ± 0.11"}
{"substance": "MCMQKVL", "amyloid nucleation score": "-0.263 ± 1.4"}
{"substance": "YSCFDRAPRFETSVESCDMS", "amyloid nucleation score": "0.093 ± 0.87"}
{"substance": "VAYRVFCD", "amyloid nucleation score": "0.51 ± 0.36"}
{"substance": "YGEHWSS", "amyloid nucleation score": "0.645 ± 1.2"}
{"substance": "LMYWLLLMEIRYNLKPLNRL", "amyloid nucleation score": "2.29 ± 0.084"}
{"substance": "LWFAHNS", "amyloid nucleation score": "0.462 ± 0.59"}
{"substance": "GRAWCFY", "amyloid nucleation score": "0.15 ± 0.33"}
{"substance": "MFLIGFDGTYERSSLF", "amyloid nucleation score": "-0.106 ± 1.7"}
{"substance": "LTISRSYRPKWFSVSTGLDS", "amyloid nucleation score": "0.437 ± 1.4"}
{"substance": "GISNSMVRHYLCTTFIYKDA", "amyloid nucleation score": "3.51 ± 0.066"}
{"substance": "AVGYYCKSINRKHFIVEKLQ", "amyloid nucleation score": "-0.298 ± 0.4"}
{"substance": "IVMVVMSSFGINEHPPDNQN", "amyloid nucleation score": "1.35 ± 0.27"}
{"substance": "VDVYFTSAMLSRLGLVGAVA", "amyloid nucleation score": "0.862 ± 0.64"}
{"substance": "PDRDYFLFFTLHCVCSSFAE", "amyloid nucleation score": "inactive"}
{"substance": "LDMVANYLYSGSALILYCHL", "amyloid nucleation score": "-1.17 ± 2.1"}
{"substance": "SYIPSISAALYFVLVMRHWL", "amyloid nucleation score": "-0.627 ± 0.49"}
{"substance": "TFIITSRFLYSDVAT", "amyloid nucleation score": "-1.33 ± 0.45"}
{"substance": "TINDKMITRFSLLCPAVSMI", "amyloid nucleation score": "1.21 ± 0.84"}
{"substance": "MSAVTGYECFRSLLV", "amyloid nucleation score": "-0.055 ± 0.35"}
{"substance": "VRHMWWVFPIFEISVRKCPV", "amyloid nucleation score": "-0.116 ± 1"}
{"substance": "NRWSGLSHRS", "amyloid nucleation score": "-1.63 ± 2.1"}
{"substance": "RTRAGKYMYVSSQPTCSILI", "amyloid nucleation score": "0.312 ± 0.56"}
{"substance": "VVCRPTWRWGLKEIYE", "amyloid nucleation score": "-0.133 ± 0.83"}
{"substance": "LNRRMNRCCTWLNMCADFFA", "amyloid nucleation score": "0.865 ± 0.75"}
{"substance": "LPGYVGQ", "amyloid nucleation score": "0.472 ± 0.78"}
{"substance": "IRLLAKI", "amyloid nucleation score": "inactive"}
{"substance": "KDLLMKV", "amyloid nucleation score": "0.507 ± 0.64"}
{"substance": "YWWKMLERQTRS", "amyloid nucleation score": "0.374 ± 0.9"}
{"substance": "AIFNLVSSL", "amyloid nucleation score": "-0.792 ± 1"}
{"substance": "SQAMTPNGVTSLLFTN", "amyloid nucleation score": "-0.236 ± 0.59"}
{"substance": "DRLMFRYSIRRIRFVSESSP", "amyloid nucleation score": "1.41 ± 0.43"}
{"substance": "HPLLMYWRRTFVEHRLYLT", "amyloid nucleation score": "0.031 ± 1.2"}
